Measurements from the Immune Epitope Database (IEDB).

Experiments:
Details in all cases: source organism: Influenza A virus
[1] = biological target: HLA-A*68:01; assay: IEDB peptide-MHC binding, purified MHC/competitive/radioactivity; ≥ and ≤ were set here for values at or beyond the usual limits of such assays
[2] = biological target: HLA-A*33:01; assay: as above
[3] = biological target: HLA-A*31:01; assay: as above
[4] = biological target: HLA-A*03:01; assay: IEDB peptide-MHC binding, purified MHC/competitive/fluorescence; ≥ and ≤ were set here for values at or beyond the usual limits of such assays
[5] = biological target: HLA-A*11:01; assay: as above
[6] = biological target: HLA-A*02:03; assay: IEDB peptide-MHC binding, purified MHC/competitive/radioactivity; ≥ and ≤ were set here for values at or beyond the usual limits of such assays
[7] = biological target: HLA-A*02:01; assay: as above
[8] = biological target: HLA-A*02:06; assay: IEDB peptide-MHC binding, purified MHC/competitive/fluorescence; ≥ and ≤ were set here for values at or beyond the usual limits of such assays
[9] = biological target: HLA-A*02:02; assay: as above
[10] = biological target: HLA-A*68:02; assay: as above
[11] = biological target: HLA-B*44:02; assay: IEDB peptide-MHC binding, purified MHC/competitive/radioactivity; ≥ and ≤ were set here for values at or beyond the usual limits of such assays
[12] = biological target: HLA-B*44:03; assay: as above
[13] = biological target: HLA-B*18:01; assay: IEDB peptide-MHC binding, purified MHC/competitive/fluorescence; ≥ and ≤ were set here for values at or beyond the usual limits of such assays
[14] = biological target: HLA-B*45:01; assay: as above
[15] = biological target: HLA-B*40:02; assay: as above
[16] = biological target: HLA-B*40:01; assay: as above
[17] = biological target: HLA-A*24:02; assay: IEDB peptide-MHC binding, purified MHC/competitive/radioactivity; ≥ and ≤ were set here for values at or beyond the usual limits of such assays
[18] = biological target: HLA-A*23:01; assay: as above
[19] = biological target: HLA-A*02:02; assay: as above
[20] = biological target: HLA-A*33:01; assay: IEDB peptide-MHC binding, purified MHC/competitive/fluorescence; ≥ and ≤ were set here for values at or beyond the usual limits of such assays
[21] = biological target: HLA-A*02:06; assay: IEDB peptide-MHC binding, purified MHC/competitive/radioactivity; ≥ and ≤ were set here for values at or beyond the usual limits of such assays
[22] = biological target: HLA-A*68:02; assay: as above
[23] = biological target: HLA-B*45:01; assay: as above
[24] = biological target: HLA-B*40:02; assay: as above
[25] = biological target: HLA-B*44:03; assay: IEDB peptide-MHC binding, purified MHC/competitive/fluorescence; ≥ and ≤ were set here for values at or beyond the usual limits of such assays
[26] = biological target: HLA-B*44:02; assay: as above
[27] = biological target: HLA-A*02:03; assay: as above
[28] = biological target: HLA-A*02:01; assay: as above
[29] = biological target: HLA-A*29:02; assay: IEDB peptide-MHC binding, purified MHC/competitive/radioactivity; ≥ and ≤ were set here for values at or beyond the usual limits of such assays
[30] = biological target: HLA-A*26:01; assay: as above
[31] = biological target: HLA-A*30:02; assay: as above
[32] = biological target: HLA-A*01:01; assay: IEDB peptide-MHC binding, purified MHC/competitive/fluorescence; ≥ and ≤ were set here for values at or beyond the usual limits of such assays
[33] = biological target: HLA-A*29:02; assay: as above
[34] = biological target: HLA-A*26:01; assay: as above
[35] = biological target: HLA-A*30:02; assay: as above
[36] = biological target: HLA-A*01:01; assay: IEDB peptide-MHC binding, purified MHC/competitive/radioactivity; ≥ and ≤ were set here for values at or beyond the usual limits of such assays
[37] = biological target: HLA-B*18:01; assay: as above
[38] = biological target: HLA-A*03:01; assay: as above
[39] = biological target: HLA-A*11:01; assay: as above
[40] = biological target: HLA-A*68:01; assay: IEDB peptide-MHC binding, purified MHC/competitive/fluorescence; ≥ and ≤ were set here for values at or beyond the usual limits of such assays
[41] = biological target: HLA-A*31:01; assay: as above
[42] = biological target: HLA-B*40:01; assay: IEDB peptide-MHC binding, purified MHC/competitive/radioactivity; ≥ and ≤ were set here for values at or beyond the usual limits of such assays

## RMVLSAFDER
[1]
  IC50: 631 nM
[2]
  IC50: 897 nM
[3]
  IC50: 336 nM
[4]
  IC50: 5840 nM
[5]
  IC50: 2240 nM

## ALQLLLEV
[6]
  IC50: 256 nM
[7]
  IC50: 662 nM
[8]
  IC50: 2200 nM
[9]
  IC50: 1440 nM

## QLVWMACHSAA
[6]
  IC50: 354 nM
[10]
  IC50: 21500 nM
[9]
  IC50: 2740 nM

## AEKPKFLPDLY
[11]
  IC50: 412 nM
[12]
  IC50: 1440 nM
[13]
  IC50: 34700 nM
[14]
  IC50: 2930 nM
[15]
  IC50: 4780 nM
[16]
  IC50: 10900 nM

## FNMLSTVLGV
[7]
  IC50: 15 nM

## LYRKLKREITF
[17]
  IC50: 206 nM
[18]
  IC50: 195 nM

## LLFLKVPA
[6]
  IC50: 279 nM
[19]
  IC50: 133 nM
[8]
  IC50: 13300 nM
[10]
  IC50: 23000 nM

## RMVLASTTAK
[20]
  IC50: 5880 nM

## ILGFVFTL
[21]
  IC50: 319 nM
[6]
  IC50: 11 nM
[19]
  IC50: 2.6 nM

## ITFMQALQLL
[22]
  IC50: 759 nM
[6]
  IC50: 856 nM
[19]
  IC50: 125 nM
[8]
  IC50: 8180 nM

## CEKLEQSGL
[11]
  IC50: 154 nM
[23]
  IC50: 359 nM
[24]
  IC50: 164 nM
[13]
  IC50: 43100 nM
[25]
  IC50: 2960 nM
[16]
  IC50: 1490 nM

## AEIMKICST
[23]
  IC50: 139 nM
[24]
  IC50: 13 nM
[26]
  IC50: 5120 nM
[13]
  IC50: 28200 nM
[25]
  IC50: 11700 nM
[16]
  IC50: 34200 nM

## QLMWALGENMA
[19]
  IC50: 357 nM
[8]
  IC50: 24400 nM
[10]
  IC50: 2270 nM
[27]
  IC50: 1350 nM

## ILSPLTKGIL
[6]
  IC50: 129 nM
[19]
  IC50: 159 nM
[8]
  IC50: 26000 nM
[10]
  IC50: 13300 nM
[28]
  IC50: 10500 nM

## TFEFTSFFY
[29]
  IC50: 0.1 nM
[30]
  IC50: 399 nM
[31]
  IC50: 422 nM
[32]
  IC50: 12000 nM

## VSDGGPNLY
[33]
  IC50: 2120 nM
[34]
  IC50: 25700 nM
[35]
  IC50: 2210 nM

## QIAILVTTV
[21]
  IC50: 691 nM
[6]
  IC50: 73 nM
[19]
  IC50: 150 nM
[10]
  IC50: 2220 nM

## ALASCMGLIY
[29]
  IC50: 12 nM
[36]
  IC50: 998 nM
[34]
  IC50: 2180 nM
[35]
  IC50: 2520 nM

## YERMCNILKG
[37]
  IC50: 711 nM
[24]
  IC50: 143 nM
[26]
  IC50: 1860 nM
[14]
  IC50: 19800 nM
[25]
  IC50: 3000 nM
[16]
  IC50: 2220 nM

## SFSFGGFTFK
[38]
  IC50: 188 nM
[1]
  IC50: 427 nM
[2]
  IC50: 168 nM
[39]
  IC50: 160 nM
[3]
  IC50: 82 nM

## FVEALARSI
[21]
  IC50: 668 nM
[22]
  IC50: 984 nM
[6]
  IC50: 457 nM
[19]
  IC50: 35 nM

## FESKSMKL
[24]
  IC50: 212 nM
[26]
  IC50: 23600 nM
[13]
  IC50: 2500 nM
[14]
  IC50: 53700 nM
[25]
  IC50: 66400 nM
[16]
  IC50: 1230 nM

## FEDLRVSSF
[11]
  IC50: 396 nM
[37]
  IC50: 59 nM
[15]
  IC50: 1320 nM
[25]
  IC50: 8990 nM
[16]
  IC50: 13000 nM

## TLARSICEK
[38]
  IC50: 127 nM
[39]
  IC50: 276 nM
[40]
  IC50: 1460 nM
[41]
  IC50: 8120 nM

## GLIYNRMGA
[6]
  IC50: 273 nM
[8]
  IC50: 25600 nM
[9]
  IC50: 6560 nM

## SWPDGAELPF
[17]
  IC50: 778 nM
[18]
  IC50: 469 nM

## FSMELPSFGV
[7]
  IC50: 9.5 nM

## CELTDSSWI
[11]
  IC50: 35 nM
[23]
  IC50: 139 nM
[12]
  IC50: 163 nM
[42]
  IC50: 888 nM
[13]
  IC50: 56800 nM
[15]
  IC50: 1410 nM

## KTRPILSPLTK
[38]
  IC50: 96 nM
[3]
  IC50: 70 nM

## AESRKLLLI
[11]
  IC50: 55 nM
[23]
  IC50: 167 nM
[24]
  IC50: 220 nM
[12]
  IC50: 179 nM
[42]
  IC50: 535 nM
[13]
  IC50: 33100 nM

## RTMAWTVVNSI
[6]
  IC50: 70 nM
[19]
  IC50: 126 nM
[8]
  IC50: 4510 nM
[10]
  IC50: 1520 nM
